From patent US20250277030A1, “ANTI-NAPI2B ANTIBODIES AND METHODS OF USE” (Zymeworks BC Inc., priority 2022, published 2025)

Tests used:
[1] = biological target: human sodium-dependent phosphate transporter 2B (NaPi2b) (human) (UniProt O95436); test: flow cytometry competition on HEK293-6e cells expressing human NaPi2b; row antibody unlabeled at 100 µg/mL (the reference of the calculation); competitor: AF647-labeled v18993 (lifastuzumab) at 1 µg/mL
[2] = biological target: human sodium-dependent phosphate transporter 2B (NaPi2b) (human) (UniProt O95436); test: flow cytometry competition on HEK293-6e cells expressing human NaPi2b; row antibody unlabeled at 100 µg/mL (the reference of the calculation); competitor: AF647-labeled v23855 at 1 µg/mL
[3] = biological target: human sodium-dependent phosphate transporter 2B (NaPi2b) (human) (UniProt O95436); test: flow cytometry competition on HEK293-6e cells expressing human NaPi2b; row antibody unlabeled at 100 µg/mL (the reference of the calculation); competitor: AF647-labeled v18992 (MX35) at 1 µg/mL

Measured: % inhibition vs. irrelevant mAb

human sodium-dependent phosphate transporter 2B (NaPi2b) (human), sequence (O95436 whole entry): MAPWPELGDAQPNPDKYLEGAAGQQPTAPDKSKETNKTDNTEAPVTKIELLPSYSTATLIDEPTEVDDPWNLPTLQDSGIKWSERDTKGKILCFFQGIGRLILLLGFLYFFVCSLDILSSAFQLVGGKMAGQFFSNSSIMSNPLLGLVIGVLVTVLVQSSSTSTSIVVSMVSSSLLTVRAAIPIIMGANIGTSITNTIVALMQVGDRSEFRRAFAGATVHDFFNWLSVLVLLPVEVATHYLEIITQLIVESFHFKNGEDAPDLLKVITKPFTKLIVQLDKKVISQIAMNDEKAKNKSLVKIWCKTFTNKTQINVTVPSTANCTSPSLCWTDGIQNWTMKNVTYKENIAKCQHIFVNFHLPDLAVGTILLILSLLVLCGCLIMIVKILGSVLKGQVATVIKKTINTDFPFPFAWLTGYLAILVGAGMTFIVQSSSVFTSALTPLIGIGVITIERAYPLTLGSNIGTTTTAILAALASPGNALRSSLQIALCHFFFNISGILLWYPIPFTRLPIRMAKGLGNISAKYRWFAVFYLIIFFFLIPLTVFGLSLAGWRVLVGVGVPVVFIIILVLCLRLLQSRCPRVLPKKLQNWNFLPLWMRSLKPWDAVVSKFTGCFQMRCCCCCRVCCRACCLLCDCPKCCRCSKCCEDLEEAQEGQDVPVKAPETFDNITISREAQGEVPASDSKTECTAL

v16955, palivizumab (anti-RSV) negative control (antibody)
0%: all assays above
